From PMC11375965 (Nature, 2024)

Target: the molecule itself
Test: cryo-EM structure

B1: human INF2 (inverted formin-2) residues 469-1249 (domain or fragment)
chain: not shown
binding result: binds
